The source of these data is patent publication US20250282887A1 (Amgen, published 2025).

For assay [1], the target named is T1, huMAGEB2(1-319), biotinylated full length MAGEB2 protein (human, UniProt O15479 1-319, biotinylated with recombinant BirA (site not stated)).
T1 construct: Expressed in E. coli from pET23; N-terminal 6xHis tag removed with caspase 3; also called Biotinylated MAGEB2 full length protein
T1 sequence: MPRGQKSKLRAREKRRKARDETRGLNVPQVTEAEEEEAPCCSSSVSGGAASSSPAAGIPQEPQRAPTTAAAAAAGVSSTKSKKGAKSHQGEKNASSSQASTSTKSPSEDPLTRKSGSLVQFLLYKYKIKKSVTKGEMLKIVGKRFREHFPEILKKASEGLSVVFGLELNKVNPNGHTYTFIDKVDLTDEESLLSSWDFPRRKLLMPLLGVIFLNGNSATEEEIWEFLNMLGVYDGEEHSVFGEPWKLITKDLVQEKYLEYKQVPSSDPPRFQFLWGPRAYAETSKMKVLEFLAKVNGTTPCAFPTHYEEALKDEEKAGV
Kind of assay: limited antigen FACS; biotinylated full length MAGEB2 on LumAvidin beads; B-cell supernatant. As to the method:
Biotinylated MAGEB2 full length protein was titrated 1:2 across 6 different limited antigen concentrations and then coated onto six different LumAvidin beads in FACS buffer [1×PBS+2% fetal bovine serum (Hyclone Cat No. SH30396.03)] for 30 minutes at room temperature in the dark. The beads were then washed twice in FACS buffer by centrifugation for 2 min at 3500 RPM. The coated beads were resuspended and pooled together (6-plex) and added to the rabbit B-cell supernatants at a 1:2 final dilution onto Corning 3897 96 well V-bottom polystyrene plates and incubated overnight at room temperature in the dark. […] A final wash was done before plates were read on the iQue FACS machine with Intellicyte autosampler to obtain flow cytometry measurements according to the manufacturer's recommendations; data analysis was done on Intellicyt ForeCyt® Enterprise Client Edition 6.2 (R3).

The target of assay [2] is T2, Human MAGEB2 (Melanoma-associated antigen B2) (human, UniProt O15479 1-319).
T2 construct: Intracellular antigen detected by IHC in FFPE material: CHO cells transfected with human MAGEB2 (mCherry vector with Myc/DDK tags, or ORF without tags)
T2 sequence: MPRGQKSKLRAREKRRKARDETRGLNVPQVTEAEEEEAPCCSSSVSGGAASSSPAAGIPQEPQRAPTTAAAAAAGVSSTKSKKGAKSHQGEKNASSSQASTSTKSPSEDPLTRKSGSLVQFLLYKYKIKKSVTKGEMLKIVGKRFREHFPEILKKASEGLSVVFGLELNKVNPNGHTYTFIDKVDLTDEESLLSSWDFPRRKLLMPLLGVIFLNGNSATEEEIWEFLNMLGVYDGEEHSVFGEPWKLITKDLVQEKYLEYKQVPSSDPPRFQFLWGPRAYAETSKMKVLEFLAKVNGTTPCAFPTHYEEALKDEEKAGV
As to the kind of experiment: IHC, antibody supernatant on FFPE CHO cells transfected with human MAGEB2. From the text: Negative control cells included parental Chinese hamster ovary (CHO) cells, CHO cells stably transfected with mCherry Vector Control (minus Myc/DDK tags), CHO cells stably transfected with mCherry-human DCAF4L2 (plus Myc/DDK tags). The cross-reactivity control cells included CHO cells transfected with mCherry Vector Control (plus Myc/DDK tags) with one of the human MAGE-B or MAGE-A family members (MAGEA1, MAGEA2, MAGEA3, MAGEA4, MAGEA5, MAGEA6, MAGEA8, MAGEA9, MAGEA11, MAGEA12, MAGEB1, MAGEB3, MAGEB4, MAGEB5, MAGEB6, MAGEB10, MAGEB16, MAGEB17, MAGEB18). Positive control cell lines included CHO cells transfected with mCherry Vector (plus Myc/DDK tags) with human MAGE-B2 or CHO cells transfected with mCherry Vector (open reading frame (ORF); minus Myc/DDK tags) with human MAGEB2, and thirteen human cancer cell lines with known endogenous RNA expression level of MAGEB2 (U266B1, T98G, KMM-1, U20S, CFPAC-1, SCaBER, UACC-257, CFPAC-1, VMRC-LCD, NCI-H1703, UM-UC-3, NCI-H1395, NCIH82).
FFPE samples were sectioned at 4 μm and mounted on positive charged glass slides. After mounting, paraffin sections were air-dried at room temperature. FFPE TMA samples were received as freshly sectioned and mounted on glass slides. The fully automated IHC assay was performed on a Discovery Ultra Stainer (Ventana Medical Systems, Tucson, AZ) using Ventana Anti-Rabbit HQ (cat #760-4815), Ventana Anti-HQ HRP (cat #760-4820), and Ventana Antibody Diluent with Casein (cat #760-219) (Ventana Medical Systems, Tucson, AZ). The slides were baked on the Discovery Ultra Stainer at 60° C. for 8 minutes, de-paraffinized with Ventana Discovery wash (cat #950-510) for 3 cycles (8 minutes each) at 69° C., and underwent cell conditioning (target retrieval) at 95° C. for 16 minutes (for cell arrays) or 32 minutes (tissues or TMAs) in CC1 buffer (cat #950-500). Following this, slides were incubated with Background Sniper (cat #BS966M, Biocare Medical, Pacheco, CA) in a Ventana Option Prep kit (cat #771-751) for 28 minutes, incubated with CM inhibitor (a part of the Ventana DAB kit cat #760-159) for 12 minutes, and incubated for 1 h at RT with MAGE-B2 antibody diluted with Ventana diluent with Casein in a Ventana Prep kit (cat #770-001) (working concentration at 0.1 μg/ml for cell pellet, or 1-5 ug/ml for tissues) or with a matched concentration of isotype control Rabbit IgG1 antibody.

B1: 1I23 (antibody, IgG1, V domains shown)
VH: QEQLVESGGGLVQPKGSLTLTCAASGFSFSSSYFMCWVRQAPGKGLEWIACIGSGSSAISTFYASWAQGRFTISKTSSTTVTLQMTSLTAADTATYFCARVGYDDYGDSDAFDPWGPGTLVTVSS
VL: AAVLTQTPSPVSAAVGGTVSISCQSSKSVYNKNWLSWFQQKPGQPPKLLIYGASTLASGVPSRFKGSGSGTQFTLTISDVQCDDAATYYCAGGYSSSSDTFAFGGGTEVVVK
notes: Rabbit monoclonal IgG1
On to B1, for which the binding result in assay [1] and in assay [2] was “binds” each time.

B2: 1G24 (antibody, IgG1, V domains shown)
VH: QSLEESGGGLVQPEGSLTLTCTASGFTLNNYYICWVRQAPGKGLEWIACIDNANGRTYYANWAKGRFTISKTSSTTVTLQMTSLTAADTATYFCARSLATPLWGPGTLVTVSS
VL: DIVMTQTPASVEAAVGGTVTIKCQASESIGNALAWYQQKPGQPPSLLIYRASTLASGIPSRVKGSGSGTQFTLTISDLECADAATYYCQSYDDSSSSSFFYAFGGGTEVVVK
notes: Rabbit monoclonal IgG1
As for B2, the binding result in assay [1] and in assay [2] was “binds” throughout.
